Measurements as given in publication PMC9170038.

B1: Eterna 6451659 (Inverted Exclusion NG 1) (ssRNA)
RNA: GCGUGGUUCUAGAAGGUGCUAGCGAUAAGCUAGCAAGGAUAUAGACAUGAGGAUCACCCAUGUCUUAGUGAAAUGGACACACGC
B2: Eterna 6033767 (Exclusion 3) (ssRNA)
RNA: AGGGUAGUAGGAUAUACAUGAGGAUCACCCAUGUUUCCAUUACGUGACUGGUCCUAGUGUAGAAGGGCUAGCAC
B3: Eterna 6083193 (Exclusion 6) (ssRNA)
RNA: CCAAGUUCGUAGGAUAUAGAUGCCUUAGGGCAAUUAGAAGGAUGGACAUGAGGAUCACCCAUGUCGGAUUCUGU
B4: Eterna 9406 (Exclusion 4) (ssRNA)
RNA: UUCAUGUGAGGAUAUGUGAUCUGCUUUCUGUUUAGAUGAUCACAGAAGGCACAUGAGGAUCACCCAUGUAGAUC
B5: Eterna 7612197 (Same State - Arginine B) (ssRNA)
RNA: ACGUAAAGCAGAAGGAGCGUCUUCAAUUUACAUGAGGAUCACCCAUGUUUUGUGAUCAUAUGACAGGUAGGUCGCUGAAGUACGA
B6: Eterna 12242 (Exclusion 3) (ssRNA)
RNA: GACUAGGCAGGAUAUACAUGAGGAUCACCCAUGUGUCUGCGAUAGGCACGUGAUUACUGUAGAAGGGCCUUGAC
B7: Eterna 7707528 (Exclusion - Tryptophan A) (ssRNA)
RNA: GGGAUGUAGUGAUGUUAUAUUGGAUGUAGACGAGGACCGGUACGGCCGCCACUCGUGAUGGCUGCUAGCACGUUUCGAUGUUUGC
B8: Eterna 5978372 (Brourd's mod of Exclusion 4) (ssRNA)
RNA: GCGUCUCCUGUCAGGAUAUGCACCGGCUCGCCGGCGUAGAAGGGACAUGAGGAUCACCCAUGUGGUCUACACUU
B9: Eterna 6443967 (Same State NG 2) (ssRNA)
RNA: CUAUAGAUAUGAGGAUAUGUAUAUCCAACAUGAGGAUCACCCAUGUUGAUGAUCACGUAUGUAAAGCAGAAGGCAUAUCUAUAG
B10: Eterna 6461477 (Inverted Same State NG 1) (ssRNA)
RNA: GCUGCAUGUGAGAAGGCGAUCAUGAAACAUGAUCGAGGAUAUCAUGUAAACAUGAGGAUCACCCAUGUAUGGGUAUUAAGCAGC
B11: Eterna 7653809 (Same State - Theophylline B) (ssRNA)
RNA: UGUAUGUGAUUUGAUACCAGACCAGCUGGUGGUACUUGAGGAACACCCAAGUAGGUUUGGGUCCCUUGGCAGCAAAUCGCAUACU
B12: Eterna 11866 (Sensor v3, turn-off variant 2) (ssRNA)
RNA: CUUAGCCUAAAAUCACGCAAGCUUUCUGCUUGUCUUAAGACAUGAGGAUCACCCAUGUCCGGGCUGAACUUAUGGAA
B13: Eterna 6373941 (Exclusion NG 3) (ssRNA)
RNA: GUCACGGUUAAUUCCGUGACGCGCAAACCUUGAGGAUCACCCAAGGAUAUCGACGUCAAUGACGUCGAGAAGGUGGUUGAGCGC
B14: Eterna 7652698 (Same State - Arginine A) (ssRNA)
RNA: CGGUCGGUCGGCCGGUGAUUAUGGGAUGAAGGAGCGUGGGAAGCUACAGGUAGGUCGCAUCCGAAACAUCACGAUCACGGAUGUU
B15: Eterna 6453269 (Small Loop Same State NG 3) (ssRNA)
RNA: CAGCGAUAGCUAAAGUAUCUAUCAGAGGAUAUUCAUGAAACAUGAGGAUCACCCAUGUGAAACUGGGAGAAGGCUGAUAGAUAG
B16: Eterna 5862108 (Exclusion NG 1) (ssRNA)
RNA: UCACGGGAUUGAGGAUAUAUAUUAAUUUUUUUUAUAGAAGGCAAAAUGUUAGAUUAUUCACUAUACAUGAGGAUCACCCAUGUU
B17: Eterna 7670795 (Exclusion - Tryptophan B) (ssRNA)
RNA: GGAUAGGACACGGCCGCCACUACCUAGGAUACUAGCAACAUUUGGGUACGUGAGGAUCACCCACGUAGGACCGGGUGUCCUAUCG
B18: Eterna 6080103 (Exclusion 1) (ssRNA)
RNA: CCCGGACAUGAGGAUCACCCAUGUUAGGAUAUCUAGAGGAUCUAAACCGAAUAGAUCCAGAGAAGGGAUGUGGG
B19: Eterna 7734981 (Same State - FMN A) (ssRNA)
RNA: UGUGAGCUGUCGACAAAAGUCGACUAAAGCGAGGAUAUGACGAAAGUCAGAAGGCGUCAAUAAUGGAGUGAUGUUCCUGCUCACU
B20: Eterna 7732393 (Same State - FMN B) (ssRNA)
RNA: AUUUUUUUGUCAGGAUAUUAGUGUGGGUUUGGUUUGUUAGUGAUGUUGAUAUUUGUUUUAUGUAUUUAAGAAGGGAUUUAGCGGU
B21: Eterna 6128104 (Same State NG 3) (ssRNA)
RNA: GCUCGAUGAGCUGUCUACAUGAGGAUCACCCAUGUAGAUGGGCAGGAUAUUUACGUGCUUUAUGUAGAGAAGGGCCCAUCGAGC
B22: Eterna 6401867 (Inverted Exclusion NG 1) (ssRNA)
RNA: CCGACGCCUCAGAAGGCACUCGCAUAAUGCGAGUGAGGAUAUGAGGAUCACCCAUAUCAACGUCGGAGUCACCGAAACGGUGAC
B23: Eterna 6124182 (Same State NG 2) (ssRNA)
RNA: GUAGCAUGAUUAGGAUAUUCAGCGAAUAGAUUGACAUGAGGAUCACCCAUGUGGCGAAAGCCGAGGGAGAAGGGAUGAUGCUAC
B24: Eterna 1752 (Same State - Tryptophan B) (ssRNA)
RNA: CUUUUACAGUCGGCCGCCACUGACAGCACUUCAAAGACAGUAUAAGGGUAGUGAUGUUACUUUAUCAGGACCGGGACUACCUAAC
B25: Eterna 6381351 (Inverted Exclusion NG 3) (ssRNA)
RNA: CGAUAUAUGAAGGGCGAAAGCCCACAUGAGGAUCACCCAUGUAGAAGGCGGGCCGCAACGCGGCCCGAGGAUAUAUAAUAUACA
B26: Eterna 6450941 (Small Loop Exclusion NG 3) (ssRNA)
RNA: UGGACCGAGCUAUCGGUUGACUGGGAGGAUAUGACAUGAGGAUCACCCAUGUGGGAUCUAAAUUGUCAGAAGGCUCGUUCUGGG
B27: Eterna 7697396 (Exclusion - Arginine B) (ssRNA)
RNA: UGAUAGGACAGAAGGAGCGGGCUAGUCAAAGACUAGCAAACGUUAAUAACAGGAGUGAUGUUCCAGGUAGGUCGCUGUCCUAUCU
B28: Eterna 6453699 (Inverted Same State NG 2) (ssRNA)
RNA: AGUUUGUUUGAGAAGGUGAAGUGGAAACAUGAGGAUCACCCAUGUAUUAGGAAGCCUGGUUUUGUCAAGGAUAUCGGGUAAACA
B29: Eterna 12668 (Exclusion 3) (ssRNA)
RNA: UAAAAGCUAGGAUAUACAUGAGGAUCACCCAUGUCACGGGUCCACUCAUCCUAUACGUGUAGAAGGAGCGACCC
B30: Eterna 7734974 (Same State - Theophylline A) (ssRNA)
RNA: AAAAUAAAUAAAACACGUAACAUGAAGGAUACCAGACAGGAAACUGUCCCUUGGCAGCCUCUACAUGAGGAUCACCCAUGUCGUG
B31: Eterna 7662739 (Exclusion - Arginine A) (ssRNA)
RNA: CGCGGGCCACAUGAGGAUCACCCAUGUGAAGGAGCGGCGAAUAAGCCAGGUAGGUCGCGCAUGAAUAAAUCAUGUAGGUGGCGAA
B32: Eterna 6395528 (Inverted Small Loop Exclusion NG 1) (ssRNA)
RNA: ACAUGGUAGUAGAAGGGUAUUACUUUAGAUACAACCAUUUGUUUAGUUUAUACAGGAUAUGCUUACAUGAGGAUCACCCAUGUU
B33: Eterna 15533 (Exclusion 1) (ssRNA)
RNA: UCUCGACAUGAGGAUCACCCAUGUCAGGAUAUUGUGUUUGAGGUUUUUUACCUUUUGACAAGAAGGGAUGUGUG
B34: Eterna 7692390 (Exclusion - Arginine A) (ssRNA)
RNA: AGUAGGAAACUACAAUCCUCUCUUACUGAAGGAGCGCGUGAAAACGCAGGUAGGUCGCAGGAUUGGAGAGUGAUGUUCUCCUUAA
B35: Eterna 12641 (Exclusion 3) (ssRNA)
RNA: AAUAGCUAAGGAUAUACAUGAGGAUCACCCAUGUAAAACACUACUUGGAACCGCCUCGGUAGAAGGUAGAAAAU
B36: Eterna 6461519 (Inverted Same State NG 1) (ssRNA)
RNA: GUGCCUAACUAGAAGGCCCAAUGCAAAGCAUCGGGAGGAUAUGGGUUUAAUAAAUAAACAUGAGGAUCACCCAUGUGGCACAAA
B37: Eterna 6145156 (Exclusion NG 1) (ssRNA)
RNA: UUAAAUCAUGUAGGAUAUGCAUGGCGAAGCUACGCAGAAGGACAUGAGGAUCACCCAUGUUAUAGCUACCGAAUAAGGUGGCAA
B38: Eterna 6430560 (Small Loop Same State NG 3) (ssRNA)
RNA: ACUUAAAUACCCAAAAGUCGGGCGGAGGAUAUGGAGCUUCCACCACAUGAGGAUCACCCAUGUCUUCAGAAGGCCGCCCUUGGA
B39: Eterna 6449046 (Small Loop Same State NG 1) (ssRNA)
RNA: AAUAAACACACAGGAUAUAGCAUCGUCGUUGCGAACUUAGCGACGACGAUGCUAGAAGGGUGAACACAUGAGGAUCACCCAUGU
B40: Eterna 7709739 (Same State - Tryptophan B) (ssRNA)
RNA: UAUAUAGUGACGGCCGCCACUAUAUUAAUGUUUAGGUUAGAGUGAUGUUUUGAUUAAUAUUUUUAUAGGACCGGGUUAUAUGUUA
B41: Eterna 6402672 (Exclusion NG 2) (ssRNA)
RNA: UGGCCCGCCGGAGGAUAUCUACUCUGUGGUGCACUGCGUUUGCAAUACAUGAGGAUCACCCAUGUAGAGAAGGCCGAGGGCACA
B42: Eterna 6406790 (Exclusion NG 3) (ssRNA)
RNA: GUACUGAAGCUUUGCUUUAGUCGUACAUGAGGAUCACCCAUGUAGGAUAUGGUAGGCUUUGCUUACUAGAAGGAUAGAGUGAUU

Target: MS2 coat protein, dlFG mutant (Escherichia phage MS2, UniProt P03612, del68-81insG)
Experiment: 4 mM Mg2+; no ligand; RNA-MaP array; 100 mM Tris-HCl pH 7.5, 80 mM KCl, 4 mM MgCl2, 0.1 mg/mL BSA, 1 mM DTT, 0.01 mg/mL yeast tRNA, 0.01% Tween-20; protein 1.5 nM to 3 uM; 37 C (Table S3)
Conditions: chain copies: 2; label: tethered by stalled RNA polymerase

**Q.** For B1, which Kd is on record?
**A.** 4.84 nM

**Q.** Which Kd does the source give for B2 here?
**A.** 17 nM

**Q.** How did the Kd turn out when B3 was run?
**A.** 15.8 nM

**Q.** How did the Kd turn out when B4 was run?
**A.** 141 nM

**Q.** How did the Kd turn out when B5 was run?
**A.** 127 nM

**Q.** For B6, which Kd is on record?
**A.** 330 nM

**Q.** How did the Kd turn out when B7 was run?
**A.** > 3000 nM

**Q.** Which Kd does the source give for B8 here?
**A.** 84.3 nM

**Q.** For B9, which Kd is on record?
**A.** 8.38 nM

**Q.** Which Kd does the source give for B10 here?
**A.** 272 nM

**Q.** With B11 as the binder, how does the Kd read?
**A.** 177 nM

**Q.** B12 was tested. Which Kd did it give?
**A.** 18.5 nM

**Q.** For B13, which Kd is on record?
**A.** 53.8 nM

**Q.** For B14, which Kd is on record?
**A.** 74.9 nM

**Q.** With B15 as the binder, how does the Kd read?
**A.** 14.2 nM

**Q.** For B16, which Kd is on record?
**A.** 25.5 nM

**Q.** For B17, which Kd is on record?
**A.** 12.4 nM

**Q.** How did the Kd turn out when B18 was run?
**A.** 34.3 nM

**Q.** With B19 as the binder, how does the Kd read?
**A.** > 3000 nM

**Q.** With B20 as the binder, how does the Kd read?
**A.** > 3000 nM

**Q.** Which Kd does the source give for B21 here?
**A.** 191 nM

**Q.** B22 was tested. Which Kd did it give?
**A.** 11.1 nM

**Q.** How did the Kd turn out when B23 was run?
**A.** 165 nM

**Q.** Which Kd does the source give for B24 here?
**A.** > 3000 nM

**Q.** How did the Kd turn out when B25 was run?
**A.** 7.35 nM

**Q.** Which Kd does the source give for B26 here?
**A.** 264 nM

**Q.** Which Kd does the source give for B27 here?
**A.** > 3000 nM

**Q.** For B28, which Kd is on record?
**A.** 15.2 nM

**Q.** How did the Kd turn out when B29 was run?
**A.** 17.4 nM

**Q.** How did the Kd turn out when B30 was run?
**A.** 246 nM

**Q.** B31 was tested. Which Kd did it give?
**A.** 18.3 nM

**Q.** Which Kd does the source give for B32 here?
**A.** 9.28 nM

**Q.** How did the Kd turn out when B33 was run?
**A.** 29.8 nM

**Q.** B34 was tested. Which Kd did it give?
**A.** > 3000 nM

**Q.** B35 was tested. Which Kd did it give?
**A.** 20.6 nM

**Q.** For B36, which Kd is on record?
**A.** 46 nM

**Q.** For B37, which Kd is on record?
**A.** 91.1 nM

**Q.** B38 was tested. Which Kd did it give?
**A.** 100 nM

**Q.** Which Kd does the source give for B39 here?
**A.** 195 nM

**Q.** B40 was tested. Which Kd did it give?
**A.** > 3000 nM

**Q.** Which Kd does the source give for B41 here?
**A.** 269 nM

**Q.** How did the Kd turn out when B42 was run?
**A.** 54.4 nM
